Changes are numbered by the printed parent chain.
Assays:
[1] = molecular target: T1, human CGRP receptor (CRLR + RAMP1) (human, UniProt Q16602 23-461; O60894 27-148); assay: cell-based or functional assay
[2] = molecular target: T2, cynomolgus CGRP receptor (cynoCRLR + cynoRAMP1) (cynomolgus monkey); assay: cell-based or functional assay
T2 chain 1: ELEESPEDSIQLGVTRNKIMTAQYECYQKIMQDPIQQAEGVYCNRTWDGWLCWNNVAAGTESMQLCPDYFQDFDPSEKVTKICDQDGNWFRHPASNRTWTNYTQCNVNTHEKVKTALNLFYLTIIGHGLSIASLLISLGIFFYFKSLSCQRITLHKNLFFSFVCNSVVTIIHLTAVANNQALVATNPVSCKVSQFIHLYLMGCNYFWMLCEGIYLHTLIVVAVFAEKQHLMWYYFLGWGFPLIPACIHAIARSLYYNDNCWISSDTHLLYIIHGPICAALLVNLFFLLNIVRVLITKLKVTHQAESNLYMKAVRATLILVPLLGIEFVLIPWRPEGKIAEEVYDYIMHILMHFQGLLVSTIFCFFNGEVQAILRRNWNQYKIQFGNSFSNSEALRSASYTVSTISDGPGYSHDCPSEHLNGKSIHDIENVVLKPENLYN
T2 chain 2: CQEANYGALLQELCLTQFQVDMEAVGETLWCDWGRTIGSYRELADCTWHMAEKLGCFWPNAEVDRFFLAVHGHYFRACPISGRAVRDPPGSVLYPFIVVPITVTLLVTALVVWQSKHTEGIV

rat CGRP receptor = rat CGRP receptor (rat, UniProt Q63118 24-464; Q9JJ74 27-148); assay: cell-based or functional assay
[3] = molecular target: human amylin AMY1 receptor (hCTR + hRAMP1) (human, UniProt P30988 25-474); assay: cell-based or functional assay
[4] = molecular target: human adrenomedullin receptor 1 (hCRLR + hRAMP2) (human, UniProt O60895 43-175); assay: cell-based or functional assay
[5] = molecular target: human adrenomedullin receptor 2 (hCRLR + hRAMP3) (human, UniProt O60896 24-148); assay: cell-based or functional assay
[6] = molecular target: T1, human CGRP receptor (CRLR + RAMP1); assay: 125I-CGRP competition binding, HTB-10 cell membranes
Description: The plates were incubated at room temperature for 2 hours with shaking at 60 rpm, and then the contents of each well were filtered over 0.5% polyethyleneimine (PEI)-treated (for at least one hour) GF/C 96-well filter plates. The GF/C filter plates were washed six times with ice-cold 50 mM Tris, pH 7.5 and dried in an oven at 55° C. for 1 hour. The bottoms of the GF/C plates were then sealed. 40 μl Microscint™ 20 was added to each well, the tops of the GF/C plates were sealed with TopSeal™-A (a press-on adhesive sealing film), and the GF/C plates were counted with TopCount NXT (Packard). The data were analyzed using Prizm (GraphPad Software Inc.)

[7] = molecular target: T1, human CGRP receptor (CRLR + RAMP1); assay: FACS on AM-1 CHO huCGRP R cells, KinExA n-curve analysis
Description: (§1) Briefly, AM-1 CHO huCGRP R-expressing cells, prepared as described above, were plated in 96-well plates at densities of 16,000 or 160,000 cells per well in DMEM medium containing 10% FBS, NEAA, PS, L Glut, NaPyr and 0.05% sodium azide. […] After an overnight incubation at 4° C. in a total volume of 120 μl, on a plate shaker, the cells were washed 2× with PBS+2% FBS, centrifuging and discarding supernatant each time. 100 μl/well of G anti-Hu Fc Cy5 (5 μg/mL; Jackson ImmunoResearch Laboratories Inc., West Grove, Pa., USA) containing 7AAD (5 μl/well) was then added and incubated at 4° C. for 40 min. The cells were washed 2× with PBS+2% FBS, centrifuging and discarding the supernatant each time. 100 μl PBS+2% FBS buffer was then added and analyzed by FACS to determined the binding geomean. The Kd was calculated using KinExA software by taking the negative geomean at each antibody concentration as the amount of free Ab present Rathanaswami, et al., Biochemical and Biophysical Research Communications 334 (2005) 1004-1013.

[8] = molecular target: T1, human CGRP receptor (CRLR + RAMP1); assay: FACS Kd determination on AM-1 CHO huCGRP R cells; left-hand curve, cell density not labelled on the sheet
Description: as §1

[9] = molecular target: T1, human CGRP receptor (CRLR + RAMP1); assay: FACS Kd determination on AM-1 CHO huCGRP R cells; right-hand curve, cell density not labelled on the sheet
Description: as §1

[10] = molecular target: T3, soluble CGRP receptor-muFc fusion protein (human); assay: Western blot
T3 construct: also called CGRP R-muFc; not shown: mouse Fc
T3 chain 1: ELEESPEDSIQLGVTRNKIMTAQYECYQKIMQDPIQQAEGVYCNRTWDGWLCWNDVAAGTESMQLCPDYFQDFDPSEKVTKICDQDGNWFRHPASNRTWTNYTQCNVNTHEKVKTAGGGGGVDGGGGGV
T3 chain 2: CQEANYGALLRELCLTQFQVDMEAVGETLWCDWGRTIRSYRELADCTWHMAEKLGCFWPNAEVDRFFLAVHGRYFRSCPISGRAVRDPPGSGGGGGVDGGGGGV
Description: The sample containing βME was then boiled for 4 min. […] Gels were electroblotted onto 0.2 μm nitrocellulose filters (Invitrogen). The blots were washed with Tris-buffered saline+1% Tween 20 (TBST) and then blocked with TBST+5% powered dry milk for 30 min. The blots were cut into strips along the molecular weight marker lanes. […] Blots were incubated with the antibodies for one hour followed by 3×10 min washes with TBST+1% milk. The blots treated with the huCGRP R antibodies were then incubated with goat anti-mouse IgG-Fc-HRP (1:10,000 in TBST+1% milk) and the blots treated with anti-huRAMP1 (N-20 anti-RAMP1 goat polyclonal antibody, Santa Cruz Biotech, CA) were incubated with rabbit anti-goat IgG-Fc-HRP (1:10,000) for 20 min. Blots were washed 3×15 min with TBST. The huCGRP R and anti-huRAMP1 antibody blots were treated with Pierce Supersignal West Pico Detection reagent, and the anti-mouse and anti-human IgG-Fc-HRP blots were treated with Pierce standard Detection Reagent (1 min.). Blots were then exposed with Kodak Biomax MS X-ray film.

B1: 12G8 (antibody, human IgG2, lambda, V domains shown)
VH: QVQLVESGGGVVQPGRSLRLSCAASGFTFSSFGMHWVRQAPGKGLEWVAVISFDGSIKYSVDSVKGRFTISRDNSKNTLFLQMNSLRAEDTAVYYCARDRLNYYDSSGYYHYKYYGLAVWGQGTTVTVSS
VL: QSVLTQPPSVSAAPGQKVTISCSGSSSNIGNNYVSWYQQLPGTAPKLLIYDNNKRPSGIPDRFSGSKSGTSATLGITGLQTGDEADYYCGTWDSRLSAVVFGGGTKLTVLG
notes: also called 12G8.2
- cAMP assay IC50 [1]: 2.14 nM
- cAMP assay IC50 [2]: 2.74 nM
- cAMP assay IC50 (rat CGRP receptor): > 1000 nM
- cAMP assay IC50 [3]: > 1000 nM
- cAMP assay IC50 [4]: > 1000 nM
- cAMP assay IC50 [5]: > 1000 nM
- Ki [6]: 0.017 nM
- Kd [7]: 1.4 nM
- EC50 (read off the curve) [8]: ~2 nM
- EC50 (read off the curve) [9]: ~8 nM

B2: 4E4 (antibody, human IgG2, lambda, V domains shown)
VH: B1 VH with L117M
VL: B1 VL with A72T
notes: also called 04E4; 04E4.2
- binding result [10]: binds
- cAMP assay IC50 [2]: 3.52 nM
- cAMP assay IC50 (rat CGRP receptor): > 1000 nM
- cAMP assay IC50 [3]: > 1000 nM
- cAMP assay IC50 [4]: > 1000 nM
- cAMP assay IC50 [5]: > 1000 nM

B3: 3B6 (antibody, human IgG2, lambda, V domains shown)
VH: not shown
VL: SSELTQDPTVSVALGQTVKITCQGDSLRSFYASWYQQKPGQAPVLVFYGKNNRPSGIPDRFSGSSSGNTASLTITGAQAEDEADYYCNSRDSSVYHLVLGGGTKLTVLG
notes: also called 03B6; 03B6.2
- binding result [10]: binds
- cAMP assay IC50 [2]: 2.22 nM
- cAMP assay IC50 (rat CGRP receptor): > 1000 nM
- cAMP assay IC50 [3]: > 1000 nM
- cAMP assay IC50 [4]: > 1000 nM
- cAMP assay IC50 [5]: > 1000 nM

Source: US20150376286A1 (Amgen, published 2015)
